Results as given in the supplement of paper PMC9170038.

System: MS2 coat protein
Assay: apparent KD of MS2 coat protein; designed switch direction (-1 OFF switch, 1 ON switch): -1; higher = weaker reporter binding
Summary of the method: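 Designed RNA switches were transcribed on Illumina chips by stalled E. coli RNA polymerase and titrated with SNAP-549-labelled MS2 coat protein from 0.7 or 1.5 nM, doubling to 3 µM. Step length ran from 0.8–1.5 h at the lowest concentration to 10–20 min at the highest. The apparent KD is the median over clusters for each design, from curve-fitted normalised cluster fluorescence.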

[1] = Eterna round: R95, input ligand: FMN 200 uM
[2] = Eterna round: R95, input ligand: microRNA oligo, concentration not stated
[3] = Eterna round: R95, input ligand: none

Which “apparent KD of MS2 coat protein” value [1] does the source give for “ACGUAACGAGCUUGAUCCAACAUGAGGAUCACCCAUGUGCUCGUCUUAUAACGUACUGUCACGUUAGUGAUAGUGCG [Sensor v3, turn-off variant 1 (MOD of Eli's v1-13 v.5)] (puzzle: Sensor v3, turn-off variant 1)” here?
Its value is 971 nM.

What about the “apparent KD of MS2 coat protein” value [2] of the same sequence?
Its value is 369 nM.

What about the “apparent KD of MS2 coat protein” value [3] of the same sequence?
Its value is 1190 nM.

How did the “apparent KD of MS2 coat protein” value [1] turn out when “ACGUGAUAUCUGUCGGUGGACAUGAGGAUCACCCAUGUAAGCUUCUUGCUCGUCUUAUAACCCGGUGACAGACCUUC [Zalaso] (puzzle: Sensor v3, turn-off variant 1)” was run?
Its value is 42.8 nM.

And the “apparent KD of MS2 coat protein” value [2]?
The value was 449 nM.

What about the “apparent KD of MS2 coat protein” value [3] of the same sequence?
Its value is 47 nM.

With “ACGUGAUAUCUGUCGGUGGACAUGAGGAUCACCCAUGUAAGCUUUUUGCUCGUCUUAUAACCCGGUGACAGACCUUC [Tixeed] (puzzle: Sensor v3, turn-off variant 1)” as the sequence, how does the “apparent KD of MS2 coat protein” value [1] read?
The value was 33.7 nM.

What about the “apparent KD of MS2 coat protein” value [2] of the same sequence?
Its value is 268 nM.

What about the “apparent KD of MS2 coat protein” value [3] of the same sequence?
Its value is 37.3 nM.

With “ACUAAAUAAACAAGCAAUAAUCCAUCGUCUUAUACUAAAACAUGAGGAUCACCCAUGUAACAGGUGGUGUUAAAUAA [JR_Sensorv2_tov2_Sub1202] (Eterna round: R96, puzzle: Sensor v2, turn-off variant 2)” as the sequence, how does the “apparent KD of MS2 coat protein” value (input ligand: FMN 200 uM) read?
The value was 15.4 nM.

And the “apparent KD of MS2 coat protein” value (input ligand: microRNA oligo, concentration not stated)?
Its value is 40.6 nM.

What about the “apparent KD of MS2 coat protein” value (input ligand: none) of the same sequence?
The value was 19.1 nM.

How did the “apparent KD of MS2 coat protein” value [2] turn out when “ACUAGAUGAGGAUAUGCAUGUUUUCAUGUUCUUCUAGAUUAACAUGAGGAUCACCCAUGUAGAAGGCGUCUUAU [Exclusion 2 - 30] (puzzle: Exclusion 2)” was run?
Its value is 18.4 nM.

With “ACUAUCAGAUUCUUAGGGUACAUGAGGAUCACCCAUGUGUACGUCUACGAGGGUUCGAAAAUCAAGCUCCGCUCGUC [Eternabot (L2) Solution 19] (Eterna round: R97, puzzle: Sensor, turn-off variant 1)” as the sequence, how does the “apparent KD of MS2 coat protein” value (input ligand: FMN 200 uM) read?
The value was 99.2 nM.

What about the “apparent KD of MS2 coat protein” value (input ligand: none) of the same sequence?
Its value is 91.8 nM.

With “ACUCAACAGUAGGAUAUCAUCAAACUAUUGUGAUGAGAAGGACUGACAUGAGGAUCACCCAUGUUAACGUGAAG [Mod of Brourd 3 - Jieux - Exclusion 6] (Eterna round: R97, puzzle: Exclusion 6)” as the sequence, how does the “apparent KD of MS2 coat protein” value (input ligand: FMN 200 uM) read?
The value was 41.8 nM.

And the “apparent KD of MS2 coat protein” value (input ligand: none)?
Its value is 28.4 nM.

“ACUCUUCUUGUUAGGAUAUGCAUCGGGCUUCCGCAGCAGAAGGAACAUGAGGAUCACCCAUGUCAAAUAAAAUC (Eterna round: R97, puzzle: Brourd's mod of Exclusion 4)” was tested. Which “apparent KD of MS2 coat protein” value (input ligand: FMN 200 uM) did it give?
Its value is 141 nM.

And the “apparent KD of MS2 coat protein” value (input ligand: none)?
The value was 20.8 nM.

Which results are given for “ACUGAACAUGAGGAUCACCCAUGUAAGGAUAUGCCACACGGGCUACAUAGCCAUCAAAGUAGAAGGUGCUGGGA [Eternabot (Original) Solution 15] (Eterna round: R97, puzzle: Exclusion 1)”?
apparent KD of MS2 coat protein (input ligand: FMN 200 uM): 20.3 nM; apparent KD of MS2 coat protein (input ligand: none): 26.2 nM

Which “apparent KD of MS2 coat protein” value (input ligand: FMN 200 uM) does the source give for “ACUGUGACGUAGGAUAUCUCCUAAUUGCGCCGGAGAGAAGGACGUACAUGAGGAUCACCCAUGUGCCCUCGGAA [EX6 B.13] (Eterna round: R97, puzzle: Exclusion 6)” here?
The value was 300 nM.

What about the “apparent KD of MS2 coat protein” value (input ligand: none) of the same sequence?
The value was 56.4 nM.

What does the source list for “ACUUACUGAGGAUAUACAUAGAUUUACAUGAGGAUCACCCAUGUUCCUCUAUGUAUAUAUGUAGAAGGCAGAAGAG [Mat - Exclusion 5 - JL Mod - D35] (Eterna round: R97, puzzle: Exclusion 5)”?
apparent KD of MS2 coat protein (input ligand: FMN 200 uM): 56.3 nM; apparent KD of MS2 coat protein (input ligand: none): 21.6 nM

Which results are given for “ACUUACUGAGGAUAUACAUAGAUUUACAUGAGGAUCACCCAUGUUCCUCUAUGUAUAUAUGUAGAAGGCAGAAGAU [Mat - Exclusion 5 - JL Mod - D34] (Eterna round: R97, puzzle: Exclusion 5)”?
apparent KD of MS2 coat protein (input ligand: FMN 200 uM): 56.9 nM; apparent KD of MS2 coat protein (input ligand: none): 18.9 nM
